Source: patent publication EP2096121A1 (Institut Pasteur Of Shanghai, dated 2009)

Columns and labels:
[1] = target: HIV-1 envelope Q168 (subtype A) (HIV-1 (subtype A)); experiment: cell-based or functional assay
[2] = target: HIV-1 envelope pDOL (subtype B) (HIV-1 (subtype B)); experiment: cell-based or functional assay

B1: GPI-scFv (TG15): scFv/hinge/his-tag/DAF, anti-HIV-1 gp41 single-chain Fv derived from human monoclonal antibody TG15, GPI-anchored (scFv)
scFv: QVQLQQWGAGLLKPSETLSLTCAVYGDSFGGHHWSWIRQPPGKGLEWIGEINFLGNTNYNPSLKSRVAISKDTSKNQFSLTLNSATAADTAVYFCARRETMETASRKRAFDIWGQGTMETVTVSAGGGGSGGGGSGGGGSAELMETTQSPPTLSASVGDRVTITCRASQSLSGWVAWYQQKPGKAPKLLIYKASTLESGVPSRFSGSGSGTVFALTISSLQPDDSATYYCQQHSAFSSTFGQGTKLEIKRTPLGDTTHTSGHHHHHHGSGTTSGTTRLLSGHTCFTLTGLLGTLVTMETGLLT
With B1 the “relative luciferase activity (RLA), single-cycle pseudotype infectivity, CEMss-GPI-scFv compared to CEMss-eGFP” value [1] was 180 fold reduction and the “relative luciferase activity (RLA), single-cycle pseudotype infectivity, CEMss-GPI-scFv compared to CEMss-eGFP” value [2] was 8 fold reduction.
